The values below come from patent US20230242658A1 (published 2023).

In assay [1] the target is T1, human PD-L1 on CHO-K1 cells (human, UniProt Q9NZQ7 19-290).
T1 construct: whole, on cells; also called CHO-K1/hPDL1; CHO-K1/hPD-L1
Nature of the assay: FACS, CHO-K1/hPD-L1 cells. Background: Flow cytometry measures light scatter and fluorescence of single cells or particles in a stream.

Assay [2] concerns the target T2, human 4-1BB on CHO-K1 cells (human, UniProt Q07011 24-255).
T2 construct: whole, on cells; also called CHO-K1/hu 4-1BB; CHO-K1/hu4-1BB
Briefly: FACS, CHO-K1/hu4-1BB cells. The protocol:
The binding abilities of the antibody molecules to a CHO-K1 cell strain highly expressing human 4-1BB (CHO-K1/hu4-1BB, GenScript, M00538) and a CHO-K1 cell strain highly expressing cynomolgus monkey 4-1BB (CHO-K1/cyno4-1BB, GenScript, M00569) were determined by flow cytometry FACS. Specifically, the cells were digested and resuspended in a complete medium, and the cell density was adjusted to 2×10⁶ cells/mL. Then, the cells were seeded in a 96-well V-bottom plate (Corning, #3894) at 100 μL/well (2×10⁵ cells/well) and centrifuged at 4° C. for 5 min, and the supernatant was discarded. Then, the serially diluted antibody molecules were added to the 96-well plate at 100 μL/well, and the mixtures were well mixed. The antibody molecules might serially diluted 3-fold from the highest final concentration 200 nM to obtain a total of 12 concentrations. hIgG1 iso (CrownBio, #C0001) was used as an isotype control. The cells were incubated at 4° C. for 1 h away from light. Then, the cells in each well were rinsed twice with 100 μL of pre-cooled FACS buffer (PBS buffer containing 0.5% BSA) and centrifuged at 500 g at 4° C. for 5 min, and then the supernatant was discarded. […] Then, the cells in each well were then rinsed twice with 200 μL of pre-cooled FACS buffer and centrifuged at 500 g at 4° C. for 5 min, and then the supernatant was discarded. Finally, a pre-cooled FACS buffer was added at 200 μL/well to resuspend the cells. The fluorescence signal values were read using a BD FACS CANTOII flow cytometer.

T1 sequence (Q9NZQ7 19-290): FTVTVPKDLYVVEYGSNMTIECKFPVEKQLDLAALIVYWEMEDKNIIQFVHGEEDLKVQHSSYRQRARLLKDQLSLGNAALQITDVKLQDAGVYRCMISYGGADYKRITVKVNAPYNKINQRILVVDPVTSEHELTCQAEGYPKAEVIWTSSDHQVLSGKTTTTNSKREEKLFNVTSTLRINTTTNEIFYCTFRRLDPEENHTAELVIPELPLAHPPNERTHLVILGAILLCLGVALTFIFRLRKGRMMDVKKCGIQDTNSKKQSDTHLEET
T2 sequence (Q07011 24-255): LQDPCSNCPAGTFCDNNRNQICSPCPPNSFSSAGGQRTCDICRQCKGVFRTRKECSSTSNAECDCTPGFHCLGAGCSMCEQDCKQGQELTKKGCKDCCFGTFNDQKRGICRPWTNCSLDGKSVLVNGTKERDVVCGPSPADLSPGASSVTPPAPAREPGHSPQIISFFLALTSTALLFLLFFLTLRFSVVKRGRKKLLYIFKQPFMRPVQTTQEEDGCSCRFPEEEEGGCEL

B1: PR007136 (bispecific antibody, human IgG1, kappa)
light: DIQMTQSPSTLSASVGDRVTVTCRASQSIYIWLAWYQQKPGKAPNLLIYKASSLETGVPSRFSGSGSGTEFTLTISSLQPDDFATYYCQQYYGSSRTFGQGTKVEIKRTVAAPSVFIFPPSDEQLKSGTASVVCLLNNFYPREAKVQWKVDNALQSGNSQESVTEQDSKDSTYSLSSTLTLSKADYEKHKVYACEVTHQGLSSPVTKSFNRGEC
heavy: EVQLVESGGGLVQPGGSLRLSCAASGFTFSSYWMSWVRQAPGKGLEWVANIKQEGSEKYYVDSVKGRFTISRDNAKNSLYLQMNSLRAEDTAVYYCARDRAVAGAFDIWGQGTMVTVSSASTKGPSVFPLAPSSKSTSGGTAALGCLVKDYFPEPVTVSWNSGALTSGVHTFPAVLQSSGLYSLSSVVTVPSSSLGTQTYICNVNHKPSNTKVDKKVEPKSCDKTHTCPPCPAPEAAGAPSVFLFPPKPKDTLMISRTPEVTCVVVDVSHEDPEVKFNWYVDGVEVHNAKTKPREEQYNSTYRVVSVLTVLHQDWLNGKEYKCKVSNKALPAPIEKTISKAKGQPREPQVYTLPPSREEMTKNQVSLTCLVKGFYPSDIAVEWESNGQPENNYKTTPPVLDSDGSFFLYSKLTVDKSRWQQGNVFSCSVMHEALHNHYTQKSLSLSPGGGSGGSEVQLVESGGGLVKPGGSLRLSCAASGFTFSDYYMSWFRQAPGKGLEWVSYISSSGSTQDYADSVKGRFTISRDNAKNSLYLQMNSLRAEDTAVYYCAREREPVAGTLDFDNWGQGTPVTVSS
notes: PD-L1x4-1BB IgG-VH: PR000265 + VH of PR007289 at heavy-chain C-terminus
With B1, the binding result in assay [1] and in assay [2] was “binds” in each case.

B2: PR007139 (bispecific antibody, human IgG1, kappa)
light: DIQMTQSPSTLSASVGDRVTVTCRASQSIYIWLAWYQQKPGKAPNLLIYKASSLETGVPSRFSGSGSGTEFTLTISSLQPDDFATYYCQQYYGSSRTFGQGTKVEIKRTVAAPSVFIFPPSDEQLKSGTASVVCLLNNFYPREAKVQWKVDNALQSGNSQESVTEQDSKDSTYSLSSTLTLSKADYEKHKVYACEVTHQGLSSPVTKSFNRGEC
heavy: EVQLVESGGGLVQPGGSLRLSCAASGFTFSSYWMSWVRQAPGKGLEWVANIKQEGSEKYYVDSVKGRFTISRDNAKNSLYLQMNSLRAEDTAVYYCARDRAVAGAFDIWGQGTMVTVSSASTKGPSVFPLAPSSKSTSGGTAALGCLVKDYFPEPVTVSWNSGALTSGVHTFPAVLQSSGLYSLSSVVTVPSSSLGTQTYICNVNHKPSNTKVDKKVEPKSCDKTHTCPPCPAPEAAGAPSVFLFPPKPKDTLMISRTPEVTCVVVDVSHEDPEVKFNWYVDGVEVHNAKTKPREEQYNSTYRVVSVLTVLHQDWLNGKEYKCKVSNKALPAPIEKTISKAKGQPREPQVYTLPPSREEMTKNQVSLTCLVKGFYPSDIAVEWESNGQPENNYKTTPPVLDSDGSFFLYSKLTVDKSRWQQGNVFSCSVMHEALHNHYTQKSLSLSPGGGSGGSEVQLVESGGGLVKPGGSLRLSCAASGFTFSDYYMSWIRQAPGKGLEWVSYISSSGSTIDYADSVKGRFTISRDNAKNSLYLQMNSLRAEDTAVYYCAREREEVAGTLDYDNWGQGTLVTVSS
notes: PD-L1x4-1BB IgG-VH: PR000265 + VH of PR007292 at heavy-chain C-terminus
Regarding B2, the binding result in assay [1] and in assay [2] was “binds” in each case.

B3: PR007133 (bispecific antibody, human IgG1, kappa)
light: DIQMTQSPSTLSASVGDRVTVTCRASQSIYIWLAWYQQKPGKAPNLLIYKASSLETGVPSRFSGSGSGTEFTLTISSLQPDDFATYYCQQYYGSSRTFGQGTKVEIKRTVAAPSVFIFPPSDEQLKSGTASVVCLLNNFYPREAKVQWKVDNALQSGNSQESVTEQDSKDSTYSLSSTLTLSKADYEKHKVYACEVTHQGLSSPVTKSFNRGEC
heavy: EVQLVESGGGLVQPGGSLRLSCAASGFTFSSYWMSWVRQAPGKGLEWVANIKQEGSEKYYVDSVKGRFTISRDNAKNSLYLQMNSLRAEDTAVYYCARDRAVAGAFDIWGQGTMVTVSSASTKGPSVFPLAPSSKSTSGGTAALGCLVKDYFPEPVTVSWNSGALTSGVHTFPAVLQSSGLYSLSSVVTVPSSSLGTQTYICNVNHKPSNTKVDKKVEPKSCDKTHTCPPCPAPEAAGAPSVFLFPPKPKDTLMISRTPEVTCVVVDVSHEDPEVKFNWYVDGVEVHNAKTKPREEQYNSTYRVVSVLTVLHQDWLNGKEYKCKVSNKALPAPIEKTISKAKGQPREPQVYTLPPSREEMTKNQVSLTCLVKGFYPSDIAVEWESNGQPENNYKTTPPVLDSDGSFFLYSKLTVDKSRWQQGNVFSCSVMHEALHNHYTQKSLSLSPGGGSGGSEVQLEESGGGLVKPGGSLRLSCAASGFTFSDYYMSWFRQAPGKGLEWVSYISSSGSITDYADAVKGRFNISRDNAKNSLYLQMNSLRAEDTAVYYCAREREAVAGTLDFDNWGQGTLVTVSS
notes: PD-L1x4-1BB IgG-VH: PR000265 + VH of PR007287 at heavy-chain C-terminus
As to B3, the binding result in assay [1] and in assay [2] was “binds” each time.

B4: PR007137 (bispecific antibody, human IgG1, kappa)
light: DIQMTQSPSTLSASVGDRVTVTCRASQSIYIWLAWYQQKPGKAPNLLIYKASSLETGVPSRFSGSGSGTEFTLTISSLQPDDFATYYCQQYYGSSRTFGQGTKVEIKRTVAAPSVFIFPPSDEQLKSGTASVVCLLNNFYPREAKVQWKVDNALQSGNSQESVTEQDSKDSTYSLSSTLTLSKADYEKHKVYACEVTHQGLSSPVTKSFNRGEC
heavy: EVQLVESGGGLVQPGGSLRLSCAASGFTFSSYWMSWVRQAPGKGLEWVANIKQEGSEKYYVDSVKGRFTISRDNAKNSLYLQMNSLRAEDTAVYYCARDRAVAGAFDIWGQGTMVTVSSASTKGPSVFPLAPSSKSTSGGTAALGCLVKDYFPEPVTVSWNSGALTSGVHTFPAVLQSSGLYSLSSVVTVPSSSLGTQTYICNVNHKPSNTKVDKKVEPKSCDKTHTCPPCPAPEAAGAPSVFLFPPKPKDTLMISRTPEVTCVVVDVSHEDPEVKFNWYVDGVEVHNAKTKPREEQYNSTYRVVSVLTVLHQDWLNGKEYKCKVSNKALPAPIEKTISKAKGQPREPQVYTLPPSREEMTKNQVSLTCLVKGFYPSDIAVEWESNGQPENNYKTTPPVLDSDGSFFLYSKLTVDKSRWQQGNVFSCSVMHEALHNHYTQKSLSLSPGGGSGGSEVQLVESGGGVVQPGRSLRLSCAASGFTFSDYYMSWFRQAPGKGLEWVSYISSSGTTIDYADSVKGRFTISRDNAKNSLYLQMNSLRAEDTAVYYCAREREEVAGTLDFDYWGQGTPVTVSS
notes: PD-L1x4-1BB IgG-VH: PR000265 + VH of PR007290 at heavy-chain C-terminus
For B4, the binding result in assay [1] and in assay [2] was “binds” each time.

B5: PR007141 (bispecific antibody, human IgG1, kappa)
light: DIQMTQSPSTLSASVGDRVTVTCRASQSIYIWLAWYQQKPGKAPNLLIYKASSLETGVPSRFSGSGSGTEFTLTISSLQPDDFATYYCQQYYGSSRTFGQGTKVEIKRTVAAPSVFIFPPSDEQLKSGTASVVCLLNNFYPREAKVQWKVDNALQSGNSQESVTEQDSKDSTYSLSSTLTLSKADYEKHKVYACEVTHQGLSSPVTKSFNRGEC
heavy: EVQLVESGGGLVQPGGSLRLSCAASGFTFSSYWMSWVRQAPGKGLEWVANIKQEGSEKYYVDSVKGRFTISRDNAKNSLYLQMNSLRAEDTAVYYCARDRAVAGAFDIWGQGTMVTVSSASTKGPSVFPLAPSSKSTSGGTAALGCLVKDYFPEPVTVSWNSGALTSGVHTFPAVLQSSGLYSLSSVVTVPSSSLGTQTYICNVNHKPSNTKVDKKVEPKSCDKTHTCPPCPAPEAAGAPSVFLFPPKPKDTLMISRTPEVTCVVVDVSHEDPEVKFNWYVDGVEVHNAKTKPREEQYNSTYRVVSVLTVLHQDWLNGKEYKCKVSNKALPAPIEKTISKAKGQPREPQVYTLPPSREEMTKNQVSLTCLVKGFYPSDIAVEWESNGQPENNYKTTPPVLDSDGSFFLYSKLTVDKSRWQQGNVFSCSVMHEALHNHYTQKSLSLSPGGGSGGSEVQLVESGGGLVKPGGSLRLSCVASGFTFSDYYMSWFRQAPGKGLEWVSYISGSGTTIDYADSVKGRFTISRDNAKNSLYLQMNSLRAEDTAVYYCAREREPVAGTLDFDNWGQGTLVTVSS
notes: PD-L1x4-1BB IgG-VH: PR000265 + VH of PR007294 at heavy-chain C-terminus
Take B5: the binding result in assay [1] and in assay [2] was “binds” in each case.

B6: PR007135 (bispecific antibody, human IgG1, kappa)
light: DIQMTQSPSTLSASVGDRVTVTCRASQSIYIWLAWYQQKPGKAPNLLIYKASSLETGVPSRFSGSGSGTEFTLTISSLQPDDFATYYCQQYYGSSRTFGQGTKVEIKRTVAAPSVFIFPPSDEQLKSGTASVVCLLNNFYPREAKVQWKVDNALQSGNSQESVTEQDSKDSTYSLSSTLTLSKADYEKHKVYACEVTHQGLSSPVTKSFNRGEC
heavy: EVQLVESGGGLVQPGGSLRLSCAASGFTFSSYWMSWVRQAPGKGLEWVANIKQEGSEKYYVDSVKGRFTISRDNAKNSLYLQMNSLRAEDTAVYYCARDRAVAGAFDIWGQGTMVTVSSASTKGPSVFPLAPSSKSTSGGTAALGCLVKDYFPEPVTVSWNSGALTSGVHTFPAVLQSSGLYSLSSVVTVPSSSLGTQTYICNVNHKPSNTKVDKKVEPKSCDKTHTCPPCPAPEAAGAPSVFLFPPKPKDTLMISRTPEVTCVVVDVSHEDPEVKFNWYVDGVEVHNAKTKPREEQYNSTYRVVSVLTVLHQDWLNGKEYKCKVSNKALPAPIEKTISKAKGQPREPQVYTLPPSREEMTKNQVSLTCLVKGFYPSDIAVEWESNGQPENNYKTTPPVLDSDGSFFLYSKLTVDKSRWQQGNVFSCSVMHEALHNHYTQKSLSLSPGGGSGGSEVQLVESGGGLVKPGGSLRLSCAASGFTFSDYYMSWFRQAPGKGLEWVSYISGSGSIIDYADSVKGRFTISRDNAKNSLYLQMNSLRAEDTAVYYCSREREAVAGTLDFDYWGQGTLVTVSS
notes: PD-L1x4-1BB IgG-VH: PR000265 + VH of PR007288 at heavy-chain C-terminus
For the molecule B6, the binding result in assay [1] and in assay [2] was “binds” throughout.
